From patent US20090155176A1 (Novartis, published 2009)

Target: T1, β2 construct alone (mock) expressed in 293 cells (UniProt P05107 23-769)
T1 construct: whole, on cells; Negative control transfectant; also called mock (β2) transfected cells
Experiment: adhesion of transfected 293 cells to plate-bound ICAM-1-Ig

T1 sequence (P05107 23-769): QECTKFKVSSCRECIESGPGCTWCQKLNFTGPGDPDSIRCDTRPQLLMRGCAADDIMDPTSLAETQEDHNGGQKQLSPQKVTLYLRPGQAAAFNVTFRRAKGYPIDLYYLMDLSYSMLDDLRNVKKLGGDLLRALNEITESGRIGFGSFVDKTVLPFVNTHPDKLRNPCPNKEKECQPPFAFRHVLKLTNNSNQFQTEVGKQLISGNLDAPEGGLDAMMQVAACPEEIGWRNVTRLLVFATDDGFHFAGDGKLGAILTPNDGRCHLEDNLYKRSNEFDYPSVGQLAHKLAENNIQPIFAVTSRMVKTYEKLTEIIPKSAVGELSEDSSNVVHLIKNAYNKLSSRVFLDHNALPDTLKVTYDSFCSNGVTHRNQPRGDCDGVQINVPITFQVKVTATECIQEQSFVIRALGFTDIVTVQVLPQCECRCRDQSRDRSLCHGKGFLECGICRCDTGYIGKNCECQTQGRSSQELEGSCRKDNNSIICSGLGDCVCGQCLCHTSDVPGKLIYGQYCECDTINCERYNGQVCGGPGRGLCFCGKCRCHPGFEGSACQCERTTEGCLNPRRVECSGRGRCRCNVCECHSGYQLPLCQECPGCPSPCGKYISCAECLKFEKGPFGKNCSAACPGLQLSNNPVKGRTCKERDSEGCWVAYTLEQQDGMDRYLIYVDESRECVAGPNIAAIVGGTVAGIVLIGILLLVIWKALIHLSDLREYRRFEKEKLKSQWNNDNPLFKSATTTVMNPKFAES

B1: ICAM-1-Ig (Fc fusion, UniProt P05362 28-480, looked up)
chain: QTSVSPSKVILPRGGSVLVTCSTSCDQPKLLGIETPLPKKELLLPGNNRKVYELSNVQEDSQPMCYSNCPDGQSTAKTFLTVYWTPERVELAPLPSWQPVGKNLTLRCQVEGGAPRANLTVVLLRGEKELKREPAVGEPAEVTTTVLVRRDHHGANFSCRTELDLRPQGLELFENTSAPYQLQTFVLPATPPQLVSPRVLEVDTQGTVVCSLDGLFPVSEAQVHLALGDQRLNPTVTYGNDSFSAKASVSVTAEDEGTQRLTCAVILGNQSQETLQTVTIYSFPAPNVILTKPEVSEGTEVTVKCEAHPRAKVTLNGVPAQPLGPRAQLLLKATPEDNGRSFSCSATLEVAGQLIHKNQTRELRVLYGPRLDERDCPGNWTWPENSQQTPMCQAWGNPLPELKCLKDGTFPLPIGESVTVTRDLEGTYLCRARSTQGEVTRKVTVNVLSPRYE
notes: not shown: Ig portion
binding result: no binding
